Data published in paper PMC3458052, “Single Amino Acid Substitutions in the Chemotactic Sequence of Urokinase Receptor Modulate Cell Migration and Invasion” (PLoS ONE, 2012).

Target: T1, uPAR carrying the S90P substitution (human, UniProt Q03405 23-305, S90P)
T1 construct: human uPAR, whole cDNA in pcDNA3 with S90P made by site-specific mutagenesis, on 293 cells; also called uPAR^S90P; source: on intact adherent cells and in RIPA lysate
Experiment: radioligand binding; 10 nM ^125I-Vn with increasing unlabeled Vn on adherent transfected 293 clones (2×10^5 cells/well), 3 hours at 4°C, binding buffer DMEM, 1 mg/ml BSA, 10 mM Hepes pH 7.4; surface-bound label recovered by acid wash pH 3.0; apparent Kd; cells also carry endogenous αvβ5
Details: one partner purified

T1 sequence (Q03405 23-305 S112P): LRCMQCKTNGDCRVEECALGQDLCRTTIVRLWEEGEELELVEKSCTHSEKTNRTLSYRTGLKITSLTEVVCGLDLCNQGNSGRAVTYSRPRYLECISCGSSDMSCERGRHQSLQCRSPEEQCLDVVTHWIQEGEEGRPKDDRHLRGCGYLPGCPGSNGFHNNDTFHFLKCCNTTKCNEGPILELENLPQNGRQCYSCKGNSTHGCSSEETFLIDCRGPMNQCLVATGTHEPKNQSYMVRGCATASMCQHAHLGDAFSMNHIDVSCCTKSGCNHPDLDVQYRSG

B1: vitronectin (ligand, UniProt P04004 20-478, looked up)
chain: DQESCKGRCTEGFNVDKKCQCDELCSYYQSCCTDYTAECKPQVTRGDVFTMPEDEYTVYDDGEEKNNATVHEQVGGPSLTSDLQAQSKGNPEQTPVLKPEEEAPAPEVGASKPEGIDSRPETLHPGRPQPPAEEELCSGKPFDAFTDLKNGSLFAFRGQYCYELDEKAVRPGYPKLIRDVWGIEGPIDAAFTRINCQGKTYLFKGSQYWRFEDGVLDPDYPRNISDGFDGIPDNVDAALALPAHSYSGRERVYFFKGKQYWEYQFQHQPSQEECEGSSLSAVFEHFAMMQRDSWEDIFELLFWGRTSAGTRQPQFISRDWHGVPGQVDAAMAGRIYISGMAPRPSLAKKQRFRHRNRKGYRSQRGHSRGRNQNSRRPSRATWLSLFSSEESNLGANNYDDYRMDWLVPATCEPIQSVFFFSGDKYYRVNLRTRRVDTVDPPYPRSIAQYWLGCPAPGHL
modifications: ^125I (radio-iodinated with Na^125I using IODO-BEADS) on the tracer; the competitor is unlabeled
notes: vitronectin (Vn), bought from Promega; also called Vn; ^125I-Vn; source: bought: Promega
- IC50: ~10 nM
